Measured values taken from article PMC9375587.

Columns and labels:
[1] = biological target: Myeloperoxidase (MPO), native, dimeric (human) (UniProt P05164); test: SPR
[2] = biological target: 2 CP-dimeric MPO complex (CP-MPO-MPO-CP) (human (endogenous in donor blood plasma) | human) (UniProt P00450); test: solid-phase enzyme assay

Substance: Ceruloplasmin proteolyzed by thrombin (FIIa) (from UniProt P00450 501-906) (natural protein)
- Kd [1]: 0.327 µM
- koff [1]: 0.422 s⁻¹
- kon [1]: 12900 M⁻¹ s⁻¹

Substance: Alpha-thrombin (FIIa) (enzyme)
- Kd [2]: 0.046 µM
